Results published in patent US11098083B2, “Peptide that regulates fat metabolism and method for regulating fat metabolism” (SHENZHEN INSTITUTES OF ADVANCED TECHNOLOGY, priority 2017, dated 2021).
Ends that are not written are not given here.

Target: T1, human GPRC6A (hGPRC6A) (Homo sapiens, UniProt Q5T6X5)
T1 construct: expressed in transfected cells; host or cells: Hela cells (transfected with Lipofectamine 2000)
T1 sequence (Q5T6X5 19-926): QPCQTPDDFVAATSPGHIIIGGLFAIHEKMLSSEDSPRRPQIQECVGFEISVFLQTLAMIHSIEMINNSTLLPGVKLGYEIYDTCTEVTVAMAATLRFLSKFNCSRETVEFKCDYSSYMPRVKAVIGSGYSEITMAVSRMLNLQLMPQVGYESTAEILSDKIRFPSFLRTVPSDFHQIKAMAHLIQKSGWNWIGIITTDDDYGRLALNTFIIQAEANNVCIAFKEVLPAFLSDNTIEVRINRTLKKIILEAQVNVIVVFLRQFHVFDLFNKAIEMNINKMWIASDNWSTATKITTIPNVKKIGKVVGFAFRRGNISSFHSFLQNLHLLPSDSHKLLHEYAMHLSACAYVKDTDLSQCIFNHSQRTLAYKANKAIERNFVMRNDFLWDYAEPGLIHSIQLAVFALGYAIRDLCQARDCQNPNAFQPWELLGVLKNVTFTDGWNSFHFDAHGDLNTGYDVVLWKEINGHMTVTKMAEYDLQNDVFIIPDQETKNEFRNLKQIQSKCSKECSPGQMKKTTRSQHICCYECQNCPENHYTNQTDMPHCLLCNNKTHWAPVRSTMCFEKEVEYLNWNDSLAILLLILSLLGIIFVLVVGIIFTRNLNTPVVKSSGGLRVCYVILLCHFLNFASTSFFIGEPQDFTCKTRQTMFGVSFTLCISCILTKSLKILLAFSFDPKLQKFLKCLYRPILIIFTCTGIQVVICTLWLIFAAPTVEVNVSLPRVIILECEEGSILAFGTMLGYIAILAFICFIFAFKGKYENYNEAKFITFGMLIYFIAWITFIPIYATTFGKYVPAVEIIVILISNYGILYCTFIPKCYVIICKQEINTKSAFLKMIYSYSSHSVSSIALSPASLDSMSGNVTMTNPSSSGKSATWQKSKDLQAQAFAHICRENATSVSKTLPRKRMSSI
Experiment: fluorescent binding of OCN peptides to cell membranes of Hela cells with hGPRC6A overexpressed
Settings: Hela cells with hGPRC6A overexpressed, fluorescent detection, FIG. 6B
Protocol: S131: overexpression of hGPRC6A in Hela cells may be established.
1) Cell plating: A Hela cell suspension may be plated at a density of 1.6×10^5 cells/mL into a 6-well tray with 2 mL of DMEM per well, incubating at 37° C. and 5% CO2 for 24 hours.
2) A vector carrying hGPRC6A (pReceiver-M61) may be transfected into the Hela cells for overexpression, using Lipofectamine 2000 (Invitrogen) as per manufacturer's instructions, and media containing the vector may be replaced by normal media 4 hours later.
3) After the transfection, the cells may be cultured in the normal media for another 48 hours, and the normal media may be discarded. The cells attached on a bottom of each well may be washed twice with sterile PBS, and 300 μl of TRIzol solution may be added into each well. Cellular RNAs may be extracted as per RNAiso Plus (TaKaRa) instructions, and after a DNase treatment, may be reversely transcribed into cDNAs using DNAEngine and a SuperScript™ (Invitrogen, Canada) kit. The cDNAs may be used as a template, and real-time monitoring and analysis may be performed to fluorescent PCR products at various time points using a SYBR Green (Light Cycler Roche, Germany) method to detect expression levels of the hGPRC6A. […] The selected cell strain may then be detected for its gene expression by qPCR. […]

YLGASVPSPDPLEPT [ISAP1]
affinity of binding to the hGPRC6A compared with OCN: consistent with that of the OCN
